Laboratory results taken from US20050037969A1 (ARBOR VITA, published 2005).
Ends that are not written are not given here. * marks the point of attachment. Biotin = O=C1N[C@H]2[C@H](CS[C@H]2CCCCC(=O)*)N1

T1: GST-TAX-IP40 PDZ domain fusion protein (human, UniProt Q6B4M5 150-252 (rat entry))
T1 construct: also called TAX40; not shown: glutathione S-transferase encoded by vector pGEX-3X (Pharmacia)
T1 sequence: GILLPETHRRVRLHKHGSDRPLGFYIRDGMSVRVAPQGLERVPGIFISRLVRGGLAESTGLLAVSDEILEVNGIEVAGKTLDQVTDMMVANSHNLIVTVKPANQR

T2: GST-prIL16 fusion protein (PDZ domains 1-2) (Homo sapiens (Human), UniProt Q14005 1111-1324)
T2 construct: also called putative interleukin 16 precursor; not shown: glutathione S-transferase encoded by vector pGEX-3X (Pharmacia)
T2 sequence: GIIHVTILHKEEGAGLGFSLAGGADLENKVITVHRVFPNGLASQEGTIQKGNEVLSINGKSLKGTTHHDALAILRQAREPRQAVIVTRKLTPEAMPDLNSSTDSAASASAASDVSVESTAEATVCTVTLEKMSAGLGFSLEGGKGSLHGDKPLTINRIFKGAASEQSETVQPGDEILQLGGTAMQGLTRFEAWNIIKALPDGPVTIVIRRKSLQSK

T3: GST-TAX-IP2 PDZ domain fusion protein (human, UniProt O14908 129-216)
T3 construct: also called TAX-1P2; TAX2; not shown: glutathione S-transferase encoded by vector pGEX-3X (Pharmacia)
T3 chain: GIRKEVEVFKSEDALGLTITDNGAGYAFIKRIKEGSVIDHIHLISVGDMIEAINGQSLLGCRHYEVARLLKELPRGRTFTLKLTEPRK

T4: ConEn PDZ-GST fusion protein (Homo sapiens (Human), UniProt Q969H4 193-287)
T4 construct: The label ConEn is not explained in the excerpts
T4 sequence: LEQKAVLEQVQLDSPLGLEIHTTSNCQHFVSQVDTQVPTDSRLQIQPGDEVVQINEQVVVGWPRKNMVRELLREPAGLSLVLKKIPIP

T5: GST-AF6 PDZ domain fusion protein (Homo sapiens (Human), UniProt P55196 1001-1093)
T5 construct: also called af-6 protein; not shown: glutathione S-transferase encoded by vector pGEX-3X (Pharmacia)
T5 sequence: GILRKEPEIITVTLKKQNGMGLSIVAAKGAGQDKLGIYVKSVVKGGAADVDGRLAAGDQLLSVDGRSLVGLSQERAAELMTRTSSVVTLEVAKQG

T6: GST-cytohesin binding protein PDZ domain fusion protein (Homo sapiens (Human), UniProt O60759 74-165)
T6 construct: also called CBP; not shown: glutathione S-transferase encoded by vector pGEX-3X (Pharmacia)
T6 sequence: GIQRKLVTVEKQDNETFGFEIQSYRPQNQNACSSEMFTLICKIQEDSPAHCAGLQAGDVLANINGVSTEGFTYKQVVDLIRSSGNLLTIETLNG

T7: GST-PTN-4 PDZ domain fusion protein (Homo sapiens (Human), UniProt P29074 517-605)
T7 construct: also called protein-tyrosine phosphatase meg1; not shown: glutathione S-transferase encoded by vector pGEX-3X (Pharmacia)
T7 sequence: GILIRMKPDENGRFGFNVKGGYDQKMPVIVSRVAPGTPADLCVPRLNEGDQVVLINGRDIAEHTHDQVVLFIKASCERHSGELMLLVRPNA

T8: GST-RGS12 PDZ domain fusion protein (human, UniProt O14924 17-85)
T8 construct: also called human regulator of G-protein signalling 12; not shown: glutathione S-transferase encoded by vector pGEX-3X (Pharmacia)
T8 sequence: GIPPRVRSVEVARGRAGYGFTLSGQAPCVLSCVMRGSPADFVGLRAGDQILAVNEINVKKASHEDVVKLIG

T9: SP short PDZ-GST fusion protein (Homo sapiens (Human), UniProt O43464 350-435)
T9 construct: The label SP short is not explained in the excerpts
T9 sequence: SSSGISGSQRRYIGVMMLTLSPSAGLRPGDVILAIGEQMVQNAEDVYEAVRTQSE

T10: GST-KIAA0303 PDZ domain fusion protein (Homo sapiens (Human), UniProt O15021 1138-1228)
T10 construct: also called K303; not shown: glutathione S-transferase encoded by vector pGEX-3X (Pharmacia)
T10 sequence: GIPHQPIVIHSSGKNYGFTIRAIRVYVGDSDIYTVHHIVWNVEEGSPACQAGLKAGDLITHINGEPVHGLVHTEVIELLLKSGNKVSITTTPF

T11: GST-MPP1 PDZ domain fusion protein (Homo sapiens (Human), UniProt Q00013 67-152)
T11 construct: also called p55; 55 Kd erythrocyte membrane protein; not shown: glutathione S-transferase encoded by vector pGEX-3X (Pharmacia)
T11 sequence: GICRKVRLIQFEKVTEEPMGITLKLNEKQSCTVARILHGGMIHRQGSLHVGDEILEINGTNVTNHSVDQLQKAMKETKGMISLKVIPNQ

T12: K858 PDZ-GST fusion protein (Homo sapiens (Human), UniProt Q8WWI1 1038-1131)
T12 construct: Order of GST and PDZ part and limits not seen in the excerpts
T12 sequence: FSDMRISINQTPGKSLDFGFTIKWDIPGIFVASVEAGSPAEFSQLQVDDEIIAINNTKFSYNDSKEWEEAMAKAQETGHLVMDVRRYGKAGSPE

B1: CD148 C-terminal peptide AA19L, biotinylated (peptide)
peptide: Biotin-ENLAPVTTFGKTNGYIA
notes: also called CD148 (DEP-1)
B2: CD114 (G-CSFR) C-terminal peptide AA27L (peptide)
peptide: Biotin-LNFPLLQGIRVHGMEALGSF
notes: Only the last four residues are seen in the excerpts
B3: CD5 C-terminal peptide AA49L (peptide)
peptide: Biotin-SMQPDNSSDSDYDLHGAQRL
notes: as for B2
B4: CD62E C-terminal peptide AA48L (peptide)
peptide: Biotin-SSSQSLESDGSYQKPSYIL
notes: as for B2
B5: Clasp-1 C-terminal peptide AA1L, biotinylated (peptide)
peptide: Biotin-ISKATPALPTVSISSSAEV
notes: also called AA1L-R
B6: Mannose receptor C-terminal peptide AA31L (peptide)
peptide: Biotin-GTSDMKDLVGNIEQNEHSVI
notes: as for B2
B7: CC CKR-3 C-terminal peptide AA43L (peptide)
peptide: Biotin-LERTSSVSPSTAEPELSIVF
notes: as for B2
B8: FasL C-terminal peptide AA23L-M, biotinylated (peptide)
peptide: Biotin-SSKSKSSEESQTFFGLYKL
modifications: not fully specified
notes: also called FasLigand; Fas ligand

Target: T1, GST-TAX-IP40 PDZ domain fusion protein
Experiment: A/G assays

binding result | Binder
no binding | B1
no binding | B2
no binding | B3
no binding | B4
no binding | B5
no binding | B6
no binding | B7
no binding | B8

Target: T2, GST-prIL16 fusion protein (PDZ domains …)
Experiment: A/G assays

binding result | Binder
no binding | B1
no binding | B2
no binding | B3
no binding | B4
no binding | B5
no binding | B6
no binding | B7
no binding | B8

Target: T13, NSP PDZ-GST fusion protein (Homo sapiens (Human), UniProt Q92743 370-466)
T13 construct: The label NSP is not explained in the excerpts
Experiment: A/G assays

T13 sequence (Q92743 other isoform, or with tags, fused parts or gaps limits assumed): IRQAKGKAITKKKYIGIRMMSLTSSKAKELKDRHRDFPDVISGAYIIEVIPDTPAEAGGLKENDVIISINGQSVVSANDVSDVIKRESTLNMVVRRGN

binding result | Binder
no binding | B1
no binding | B2
no binding | B3
no binding | B4
no binding | B5
no binding | B6
no binding | B7
no binding | B8

Target: T3, GST-TAX-IP2 PDZ domain fusion protein
Experiment: A/G assays

binding result | Binder
no binding | B1
no binding | B2
no binding | B3
no binding | B4
no binding | B5
no binding | B6
no binding | B7
no binding | B8

Target: T4, ConEn PDZ-GST fusion protein
Experiment: A/G assays

binding result | Binder
no binding | B1
no binding | B2
no binding | B3
no binding | B4
no binding | B5
no binding | B6
no binding | B7
no binding | B8

Target: T5, GST-AF6 PDZ domain fusion protein
Experiment: A/G assays

binding result | Binder
no binding | B1
no binding | B2
no binding | B3
no binding | B4
no binding | B5
no binding | B6
no binding | B7
no binding | B8

Target: T6, GST-cytohesin binding protein PDZ …
Experiment: A/G assays

binding result | Binder
no binding | B1
no binding | B2
no binding | B3
no binding | B4
no binding | B5
no binding | B6
no binding | B7
no binding | B8

Target: T14, NOS1 PDZ-GST fusion protein (Homo sapiens (Human), UniProt P29475 11-100)
T14 construct: Order of GST and PDZ part and limits not seen in the excerpts
Experiment: A/G assays

T14 sequence (P29475 11-100 limits assumed): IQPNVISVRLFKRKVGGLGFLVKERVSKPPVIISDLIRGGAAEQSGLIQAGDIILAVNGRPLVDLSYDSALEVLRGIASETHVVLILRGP

binding result | Binder
no binding | B1
no binding | B2
no binding | B3
no binding | B4
no binding | B5
no binding | B6
no binding | B7
no binding | B8

Target: T7, GST-PTN-4 PDZ domain fusion protein
Experiment: A/G assays

binding result | Binder
no binding | B1
no binding | B2
no binding | B3
no binding | B4
no binding | B5
no binding | B6
no binding | B7
no binding | B8

Target: T8, GST-RGS12 PDZ domain fusion protein
Experiment: A/G assays

binding result | Binder
no binding | B1
no binding | B2
no binding | B3
no binding | B4
no binding | B5
no binding | B6
no binding | B7
no binding | B8

Target: T9, SP short PDZ-GST fusion protein
Experiment: A/G assays

binding result | Binder
no binding | B1
no binding | B2
no binding | B3
no binding | B4
no binding | B5
no binding | B6
no binding | B7
no binding | B8

Target: T10, GST-KIAA0303 PDZ domain fusion protein
Experiment: A/G assays

binding result | Binder
no binding | B1
no binding | B2
no binding | B3
no binding | B4
no binding | B5
no binding | B6
no binding | B7
no binding | B8

Target: T11, GST-MPP1 PDZ domain fusion protein
Experiment: A/G assays

binding result | Binder
no binding | B1
no binding | B2
no binding | B3
no binding | B4
no binding | B5
no binding | B6
no binding | B7
no binding | B8

Target: T12, K858 PDZ-GST fusion protein
Experiment: A/G assays

binding result | Binder
no binding | B1
no binding | B2
no binding | B3
no binding | B4
no binding | B5
no binding | B6
no binding | B7
no binding | B8

Target: T15, GST-TIAM1 PDZ domain fusion protein (Homo sapiens (Human), UniProt Q13009 845-931)
T15 construct: also called TLAM1; T-lymphoma invasion and metastasis inducing protein 1; not shown: glutathione S-transferase encoded by vector pGEX-3X (Pharmacia)
Experiment: A/G assays

T15 sequence (Q13009 other isoform, or with tags, fused parts or gaps): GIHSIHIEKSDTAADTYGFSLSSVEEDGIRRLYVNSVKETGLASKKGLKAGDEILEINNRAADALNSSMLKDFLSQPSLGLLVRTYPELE

binding result | Binder
no binding | B1
no binding | B2
no binding | B3
no binding | B4
no binding | B5
no binding | B6
no binding | B7
no binding | B8

Target: T16, PICK1 PDZ-GST fusion protein (Bos taurus (Bovine), UniProt Q2T9M1 17-105)
T16 construct: Order of GST and PDZ part and limits not seen in the excerpts
Experiment: A/G assays

T16 sequence (Q2T9M1 other isoform, or with tags, fused parts or gaps limits assumed): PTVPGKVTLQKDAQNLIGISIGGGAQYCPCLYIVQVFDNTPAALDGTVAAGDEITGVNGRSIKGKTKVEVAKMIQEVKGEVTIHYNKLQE

binding result | Binder
no binding | B1
no binding | B2
no binding | B3
no binding | B4
no binding | B5
no binding | B6
no binding | B7
no binding | B8
